The text below walks through data of article PMC8523169.

The target in this assay is full-length MukB (wild type) (E. coli) (UniProt P22523). The experiment in a line: fluorescence correlation spectroscopy (FCS); competition: MatP-Cy3B fixed at 1 nM, MukB at 400 nM; ParC variants at 10-fold, unlabeled MatP at 50-fold, DNA at 2.5-fold molar excess.
full-length MukB (wild type) (E. coli), sequence (P22523 whole entry): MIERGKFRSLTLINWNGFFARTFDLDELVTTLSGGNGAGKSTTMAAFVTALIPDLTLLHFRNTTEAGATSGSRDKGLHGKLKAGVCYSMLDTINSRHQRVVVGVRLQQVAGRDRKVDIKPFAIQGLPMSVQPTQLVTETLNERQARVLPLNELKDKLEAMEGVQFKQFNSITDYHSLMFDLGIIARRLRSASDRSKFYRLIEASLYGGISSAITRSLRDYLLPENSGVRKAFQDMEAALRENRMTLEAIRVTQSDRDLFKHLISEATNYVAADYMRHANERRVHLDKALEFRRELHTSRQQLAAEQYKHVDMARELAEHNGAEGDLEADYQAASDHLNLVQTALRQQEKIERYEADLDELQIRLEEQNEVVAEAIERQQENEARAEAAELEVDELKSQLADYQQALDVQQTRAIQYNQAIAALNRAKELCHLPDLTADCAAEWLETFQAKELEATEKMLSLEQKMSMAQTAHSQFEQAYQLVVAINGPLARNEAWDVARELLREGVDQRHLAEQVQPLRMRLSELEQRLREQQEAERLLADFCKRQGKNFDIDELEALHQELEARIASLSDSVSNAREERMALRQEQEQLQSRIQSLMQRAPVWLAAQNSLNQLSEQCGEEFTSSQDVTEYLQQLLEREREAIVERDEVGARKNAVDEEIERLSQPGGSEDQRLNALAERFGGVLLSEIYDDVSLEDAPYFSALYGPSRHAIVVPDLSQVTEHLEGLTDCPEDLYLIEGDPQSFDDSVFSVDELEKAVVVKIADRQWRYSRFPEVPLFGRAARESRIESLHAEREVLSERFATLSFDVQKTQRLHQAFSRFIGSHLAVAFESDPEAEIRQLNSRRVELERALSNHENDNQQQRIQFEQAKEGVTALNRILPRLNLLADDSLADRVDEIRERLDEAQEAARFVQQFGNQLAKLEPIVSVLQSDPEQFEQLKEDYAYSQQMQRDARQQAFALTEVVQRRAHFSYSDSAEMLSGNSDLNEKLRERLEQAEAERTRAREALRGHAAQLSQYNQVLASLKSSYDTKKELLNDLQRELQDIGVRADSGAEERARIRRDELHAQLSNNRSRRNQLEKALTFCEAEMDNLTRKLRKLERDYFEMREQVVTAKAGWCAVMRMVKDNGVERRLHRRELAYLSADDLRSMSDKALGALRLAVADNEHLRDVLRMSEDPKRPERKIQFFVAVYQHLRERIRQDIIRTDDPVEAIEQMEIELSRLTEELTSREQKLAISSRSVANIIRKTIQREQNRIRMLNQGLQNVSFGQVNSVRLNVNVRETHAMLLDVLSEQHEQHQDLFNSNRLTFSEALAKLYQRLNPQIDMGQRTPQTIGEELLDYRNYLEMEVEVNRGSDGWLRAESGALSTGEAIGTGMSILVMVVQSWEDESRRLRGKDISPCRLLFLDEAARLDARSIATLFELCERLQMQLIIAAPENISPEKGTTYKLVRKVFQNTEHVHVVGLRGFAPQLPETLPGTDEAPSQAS

MBP-ParC^CTD (ParC C-terminal domain with N-terminal MBP fusion) (domain or fragment), sequence (P0AFI2 whole entry, the tested form may be a part): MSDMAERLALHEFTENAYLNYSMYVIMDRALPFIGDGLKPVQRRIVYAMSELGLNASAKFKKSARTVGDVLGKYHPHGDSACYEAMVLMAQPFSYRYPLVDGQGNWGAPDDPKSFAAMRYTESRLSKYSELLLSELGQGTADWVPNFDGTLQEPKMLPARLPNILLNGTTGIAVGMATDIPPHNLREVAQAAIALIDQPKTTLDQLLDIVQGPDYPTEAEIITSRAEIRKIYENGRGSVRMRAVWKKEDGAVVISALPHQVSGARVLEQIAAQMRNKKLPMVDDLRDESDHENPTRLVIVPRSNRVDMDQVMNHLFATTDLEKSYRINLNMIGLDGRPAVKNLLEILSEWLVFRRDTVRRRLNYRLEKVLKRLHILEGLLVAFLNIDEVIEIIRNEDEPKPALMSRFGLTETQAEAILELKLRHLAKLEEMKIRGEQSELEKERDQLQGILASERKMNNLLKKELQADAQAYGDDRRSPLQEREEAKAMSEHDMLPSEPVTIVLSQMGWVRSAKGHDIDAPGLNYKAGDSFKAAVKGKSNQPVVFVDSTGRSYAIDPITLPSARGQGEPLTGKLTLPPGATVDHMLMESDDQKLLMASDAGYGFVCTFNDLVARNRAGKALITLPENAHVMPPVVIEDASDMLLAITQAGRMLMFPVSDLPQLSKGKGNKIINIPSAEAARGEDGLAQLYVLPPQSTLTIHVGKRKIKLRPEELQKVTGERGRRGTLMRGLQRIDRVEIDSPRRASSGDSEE

As to “MBP-ParC^CTD (ParC C-terminal domain with N-terminal MBP fusion) (domain or fragment)”, the fold decrease in MatP-Cy3B binding to MukB at 10-fold excess of competitor amounted to 3 fold.
